Measurements from patent publication US6084068, “Elongin A and C functional domains” (Oklahoma Medical Research Foundation, dated 2000).
Positions count from the first letter of the chain named. Names may count otherwise.

T1: Elongin BC complex (wild type rat Elongin B and C) (rat, UniProt P62870)
T1 chain 1: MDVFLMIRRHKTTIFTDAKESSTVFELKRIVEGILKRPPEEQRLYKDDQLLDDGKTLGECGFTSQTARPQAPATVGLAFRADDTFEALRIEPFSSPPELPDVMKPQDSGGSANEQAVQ
T1 chain 2: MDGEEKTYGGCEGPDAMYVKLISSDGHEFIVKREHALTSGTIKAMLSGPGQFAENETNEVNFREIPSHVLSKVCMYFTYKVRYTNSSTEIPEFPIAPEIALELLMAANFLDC

B1: Elongin C deletion mutant C(15-112) (other)
chain: DAMYVKLISSDGHEFIVKREHALTSGTIKAMLSGPGQFAENETNEVNFREIPSHVLSKVCMYFTYKVRYTNSSTEIPEFPIAPEIALELLMAANFLDC
B2: Elongin C deletion mutant C(19-112) (other)
chain: VKLISSDGHEFIVKREHALTSGTIKAMLSGPGQFAENETNEVNFREIPSHVLSKVCMYFTYKVRYTNSSTEIPEFPIAPEIALELLMAANFLDC
B3: Elongin C deletion mutant C(1-97) (other)
chain: MDGEEKTYGGCEGPDAMYVKLISSDGHEFIVKREHALTSGTIKAMLSGPGQFAENETNEVNFREIPSHVLSKVCMYFTYKVRYTNSSTEIPEFPIAP
B4: Elongin C internal deletion mutant C(Δ31-40) (other)
chain: MDGEEKTYGGCEGPDAMYVKLISSDGHEFITIKAMLSGPGQFAENETNEVNFREIPSHVLSKVCMYFTYKVRYTNSSTEIPEFPIAPEIALELLMAANFLDC
B5: Elongin C internal deletion mutant C(Δ41-50) (other)
chain: B4 chain with T31V, I32K, K33R, A34E, M35H, L36A, S37L, G38T, P39S
B6: Elongin C deletion mutant C(1-83) (other)
chain: MDGEEKTYGGCEGPDAMYVKLISSDGHEFIVKREHALTSGTIKAMLSGPGQFAENETNEVNFREIPSHVLSKVCMYFTYKVRY
B7: Elongin A internal deletion mutant Δ521-545 (other)
chain: MAAESALQVVEKLQARLAANPDPKKLLKYLKKLSVLPITVDILVETGVGKTVNSFRKHEQVGNFARDLVAQWKKLVPVERNNEAEDQDFEKSNSRKRPRDVPQQEEEAEGNYQESWQASGSQPYSPEHRQKKHRKLPELERPHKVAHGHERRDERKRCHKVSPPYSSDPESSDYGHVQSPPPSSPHQMYTDLSRSPEMDQEPIVSHPKPGKVHSNTFQDRLGVSHLGEHQGKGAVSQNKPHKSSHKEKRPVDARGDEKSSVMGREKSHKASSKEESRRLLSEDSAKEKLPSSVVKKEKDREGNSLKKKLSPALDVASDNHFKKPKHKDSEKIKSDKNKQSVDSVDSGRGTGDPLPRAKDKVPNNLKAQEGKVRTNSDRKSPGSLPKVEEMDMDDEFEQPTMSFESYLSYDQPRKKKKKVVKTSGTALGEKGLKKKDSKSTSKNLNSAQKLPKANENKSDKLQPAGAEPTRPRKVPTDVLPALPDIPLPAIQTNYRPLPSLELISSFQPKRKAFSSPQEEEKMMTLHQQCIRVLKNNIDSIFEVGGVPYSVLEPVLERCTPDQLYRIEECNHVLIEETDQLWKVHCHRDFKEERPEEYESWREMYLRLQDAREQRLRLLTNNIRSAHANKPKGRQAKMAFVNSVAKPPRDVRRRQEKFGTGGAAVPEKVRIKPAPYTTGSSHVPASNSSSSFHSSPEELAYEGPSTSSAHLAPVASSSVSYDPRKPAVKKIAPMMAKTIKAFKNRFSRR
B8: Elongin A internal deletion mutant Δ546-565 (other)
chain: MAAESALQVVEKLQARLAANPDPKKLLKYLKKLSVLPITVDILVETGVGKTVNSFRKHEQVGNFARDLVAQWKKLVPVERNNEAEDQDFEKSNSRKRPRDVPQQEEEAEGNYQESWQASGSQPYSPEHRQKKHRKLPELERPHKVAHGHERRDERKRCHKVSPPYSSDPESSDYGHVQSPPPSSPHQMYTDLSRSPEMDQEPIVSHPKPGKVHSNTFQDRLGVSHLGEHQGKGAVSQNKPHKSSHKEKRPVDARGDEKSSVMGREKSHKASSKEESRRLLSEDSAKEKLPSSVVKKEKDREGNSLKKKLSPALDVASDNHFKKPKHKDSEKIKSDKNKQSVDSVDSGRGTGDPLPRAKDKVPNNLKAQEGKVRTNSDRKSPGSLPKVEEMDMDDEFEQPTMSFESYLSYDQPRKKKKKVVKTSGTALGEKGLKKKDSKSTSKNLNSAQKLPKANENKSDKLQPAGAEPTRPRKVPTDVLPALPDIPLPAIQTNYRPLPSLELISSFQPKRKAFSSPQEEEEAGFTGRRMNSKMQVYSGSKCAYLPFEVGGVPYSVLEPVLERCTPDQLYRIEECNHVLIEETDQLWKVHCHRDFKEERPEEYESWREMYLRLQDAREQRLRLLTNNIRSAHANKPKGRQAKMAFVNSVAKPPRDVRRRQEKFGTGGAAVPEKVRIKPAPYTTGSSHVPASNSSSSFHSSPEELAYEGPSTSSAHLAPVASSSVSYDPRKPAVKKIAPMMAKTIKAFKNRFSRR
B9: Elongin A deletion mutant A(1-535) (other)
chain: MAAESALQVVEKLQARLAANPDPKKLLKYLKKLSVLPITVDILVETGVGKTVNSFRKHEQVGNFARDLVAQWKKLVPVERNNEAEDQDFEKSNSRKRPRDVPQQEEEAEGNYQESWQASGSQPYSPEHRQKKHRKLPELERPHKVAHGHERRDERKRCHKVSPPYSSDPESSDYGHVQSPPPSSPHQMYTDLSRSPEMDQEPIVSHPKPGKVHSNTFQDRLGVSHLGEHQGKGAVSQNKPHKSSHKEKRPVDARGDEKSSVMGREKSHKASSKEESRRLLSEDSAKEKLPSSVVKKEKDREGNSLKKKLSPALDVASDNHFKKPKHKDSEKIKSDKNKQSVDSVDSGRGTGDPLPRAKDKVPNNLKAQEGKVRTNSDRKSPGSLPKVEEMDMDDEFEQPTMSFESYLSYDQPRKKKKKVVKTSGTALGEKGLKKKDSKSTSKNLNSAQKLPKANENKSDKLQPAGAEPTRPRKVPTDVLPALPDIPLPAIQTNYRPLPSLELISSFQPKRKAFSSPQEEEEAGFTGRRMNSKMQV
B10: Elongin A internal deletion mutant Δ441-480 (other)
chain: MAAESALQVVEKLQARLAANPDPKKLLKYLKKLSVLPITVDILVETGVGKTVNSFRKHEQVGNFARDLVAQWKKLVPVERNNEAEDQDFEKSNSRKRPRDVPQQEEEAEGNYQESWQASGSQPYSPEHRQKKHRKLPELERPHKVAHGHERRDERKRCHKVSPPYSSDPESSDYGHVQSPPPSSPHQMYTDLSRSPEMDQEPIVSHPKPGKVHSNTFQDRLGVSHLGEHQGKGAVSQNKPHKSSHKEKRPVDARGDEKSSVMGREKSHKASSKEESRRLLSEDSAKEKLPSSVVKKEKDREGNSLKKKLSPALDVASDNHFKKPKHKDSEKIKSDKNKQSVDSVDSGRGTGDPLPRAKDKVPNNLKAQEGKVRTNSDRKSPGSLPKVEEMDMDDEFEQPTMSFESYLSYDQPRKKKKKVVKTSGTALGEKGLKKKDSKSTALPDIPLPAIQTNYRPLPSLELISSFQPKRKAFSSPQEEEEAGFTGRRMNSKMQVYSGSKCAYLPKMMTLHQQCIRVLKNNIDSIFEVGGVPYSVLEPVLERCTPDQLYRIEECNHVLIEETDQLWKVHCHRDFKEERPEEYESWREMYLRLQDAREQRLRLLTNNIRSAHANKPKGRQAKMAFVNSVAKPPRDVRRRQEKFGTGGAAVPEKVRIKPAPYTTGSSHVPASNSSSSFHSSPEELAYEGPSTSSAHLAPVASSSVSYDPRKPAVKKIAPMMAKTIKAFKNRFSRR
B11: Elongin A internal deletion mutant Δ481-520 (other)
chain: MAAESALQVVEKLQARLAANPDPKKLLKYLKKLSVLPITVDILVETGVGKTVNSFRKHEQVGNFARDLVAQWKKLVPVERNNEAEDQDFEKSNSRKRPRDVPQQEEEAEGNYQESWQASGSQPYSPEHRQKKHRKLPELERPHKVAHGHERRDERKRCHKVSPPYSSDPESSDYGHVQSPPPSSPHQMYTDLSRSPEMDQEPIVSHPKPGKVHSNTFQDRLGVSHLGEHQGKGAVSQNKPHKSSHKEKRPVDARGDEKSSVMGREKSHKASSKEESRRLLSEDSAKEKLPSSVVKKEKDREGNSLKKKLSPALDVASDNHFKKPKHKDSEKIKSDKNKQSVDSVDSGRGTGDPLPRAKDKVPNNLKAQEGKVRTNSDRKSPGSLPKVEEMDMDDEFEQPTMSFESYLSYDQPRKKKKKVVKTSGTALGEKGLKKKDSKSTSKNLNSAQKLPKANENKSDKLQPAGAEPTRPRKVPTDVLPEAGFTGRRMNSKMQVYSGSKCAYLPKMMTLHQQCIRVLKNNIDSIFEVGGVPYSVLEPVLERCTPDQLYRIEECNHVLIEETDQLWKVHCHRDFKEERPEEYESWREMYLRLQDAREQRLRLLTNNIRSAHANKPKGRQAKMAFVNSVAKPPRDVRRRQEKFGTGGAAVPEKVRIKPAPYTTGSSHVPASNSSSSFHSSPEELAYEGPSTSSAHLAPVASSSVSYDPRKPAVKKIAPMMAKTIKAFKNRFSRR
B12: Elongin A point mutant L550S (other)
chain: MAAESALQVVEKLQARLAANPDPKKLLKYLKKLSVLPITVDILVETGVGKTVNSFRKHEQVGNFARDLVAQWKKLVPVERNNEAEDQDFEKSNSRKRPRDVPQQEEEAEGNYQESWQASGSQPYSPEHRQKKHRKLPELERPHKVAHGHERRDERKRCHKVSPPYSSDPESSDYGHVQSPPPSSPHQMYTDLSRSPEMDQEPIVSHPKPGKVHSNTFQDRLGVSHLGEHQGKGAVSQNKPHKSSHKEKRPVDARGDEKSSVMGREKSHKASSKEESRRLLSEDSAKEKLPSSVVKKEKDREGNSLKKKLSPALDVASDNHFKKPKHKDSEKIKSDKNKQSVDSVDSGRGTGDPLPRAKDKVPNNLKAQEGKVRTNSDRKSPGSLPKVEEMDMDDEFEQPTMSFESYLSYDQPRKKKKKVVKTSGTALGEKGLKKKDSKSTSKNLNSAQKLPKANENKSDKLQPAGAEPTRPRKVPTDVLPALPDIPLPAIQTNYRPLPSLELISSFQPKRKAFSSPQEEEEAGFTGRRMNSKMQVYSGSKCAYLPKMMTSHQQCIRVLKNNIDSIFEVGGVPYSVLEPVLERCTPDQLYRIEECNHVLIEETDQLWKVHCHRDFKEERPEEYESWREMYLRLQDAREQRLRLLTNNIRSAHANKPKGRQAKMAFVNSVAKPPRDVRRRQEKFGTGGAAVPEKVRIKPAPYTTGSSHVPASNSSSSFHSSPEELAYEGPSTSSAHLAPVASSSVSYDPRKPAVKKIAPMMAKTIKAFKNRFSRR

biological target: wild type Elongin B (rat, UniProt P62870); test: refolded with wild type Elongin B; TSK DEAE-NPR HPLC, SDS-PAGE, silver staining
Description: Figure 10A: FIG. 10A. […] Aliquots of the indicated column fractions were analyzed by SDS-PAGE, and proteins were visualized by silver staining. Figure 10B: FIG. 10B. N-terminal, C-terminal, and internal Elongin C deletion mutants were assayed for their abilities to form Elongin BC complexes as described.
~6 µg of Elongin B was mixed with ~6 µg of either wild type or mutant Elongin C and diluted 5-fold with 40 mM Hepes-NaOH (pH 7.9), 100 mM KCl, 2 mM DTT, 50 µM ZnSO_4, 0.1 mM EDTA, and 10% (v/v) glycerol. After incubation for 90 min on ice, the mixtures were dialyzed at 4° C. overnight against 40 mM Tris-HCl (pH 7.9), 0.1 mM EDTA, 10% (v/v) glycerol, and 40 mM KCl. Following dialysis, the mixtures were centrifuged at 60,000×g for 15 min at 4° C. The resulting supernatants were applied to TSK DEAE-NPR columns (35 mm×4.6 mm, Toso-Haas) pre-equilibrated in 40 mM Tris-HCl (pH 7.9), 0.1 mM EDTA, 1 mM DTT, 10% (v/v) glycerol, and 40 mM KCl and fractionated using a SMART microchromatography system (Pharmacia) at 8° C. The columns were eluted at 0.3 ml/min with a 3 ml linear gradient from 0.04 to 0.5M KCl in 40 mM Tris-HCl (pH 7.9), 0.1 mM EDTA, 1 mM DTT, and 10% (v/v) glycerol. Aliquots of each column fraction were analyzed by 10% Tris-Tricine SDS-polyacrylamide gel electrophoresis, and the proteins were visualized by silver staining.

Does B1 bind?
Result: binds

Does B2 bind?
Result: binds

Does B3 bind?
Result: binds

Does B4 bind?
Result: binds

Does B5 bind?
Result: binds

Does B6 bind?
Result: binds

Biological target: T1, Elongin BC complex (wild type rat …)
Test: refolded with wild type Elongin B and C; TSK SP-NPR HPLC, SDS-PAGE, silver staining

Does B7 bind?
Result: binds

Does B8 bind?
Result: no binding

Does B9 bind?
Result: no binding

Does B10 bind?
Result: binds

Does B11 bind?
Result: binds

Does B12 bind?
Result: no binding
